# Assay results taken from US20120014954A1 (ABRAXIS BIOSCIENCE, published 2012).
# T1: Secreted Protein, Acidic, Rich in Cysteines (SPARC) (UniProt P09486 18-303)
# T1 construct: also called osteonectin; SPARC protein
# T1 sequence (looked up): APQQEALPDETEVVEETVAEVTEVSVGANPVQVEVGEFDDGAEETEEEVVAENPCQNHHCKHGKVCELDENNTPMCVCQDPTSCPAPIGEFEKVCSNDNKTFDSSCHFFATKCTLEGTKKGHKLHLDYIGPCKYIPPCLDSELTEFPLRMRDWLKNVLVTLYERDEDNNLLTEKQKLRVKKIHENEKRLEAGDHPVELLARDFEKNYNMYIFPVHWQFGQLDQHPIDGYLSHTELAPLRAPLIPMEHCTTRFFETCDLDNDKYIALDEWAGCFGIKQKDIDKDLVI
# T2: HTI SPARC (purified platelet SPARC obtained from HTI) (UniProt P09486 18-303)
# T2 sequence (looked up): T1 sequence (looked up)
# T3: Abx SPARC (SPARC from engineered HEK293 cells produced by Abraxis) (UniProt P09486 18-303, limits assumed)
# T3 sequence (looked up): T1 sequence (looked up)
# B1: AHPWRYTEPWSW (peptide)
# peptide: AHPWRYTEPWSW
# notes: also called clone 101; clone 154
# B2: PD 15 (peptide)
# peptide: YTRLHHWIPPQR
# notes: 12-mer from the Ph.D.-12 phage library; The peptide was cloned into pFUSE-hIgG1-Fc2 and expressed as the PD 15-Fc fusion; also called peptide 15; PD 15-Fc
# B3: PD 21 (peptide)
# peptide: VTPLLKFRALSS
# notes: 12-mer from the Ph.D.-12 phage library; The peptide was cloned into pFUSE-hIgG1-Fc2 and expressed as the PD 21-Fc fusion; also called peptide 21; PD 21-Fc
# B4: VSHPPRFPGWPQ (peptide)
# peptide: VSHPPRFPGWPQ
# notes: also called clone 59
# B5: KAYLDSIPITPR (peptide)
# peptide: KAYLDSIPITPR
# notes: also called clone 60
# B6: TSYLNSGMIPAR (peptide)
# peptide: TSYLNSGMIPAR
# notes: also called clone 63
# B7: TQWHDDSTFYWL (peptide)
# peptide: TQWHDDSTFYWL
# notes: also called clone 186
# B8: VPATRVSPTPYA (peptide)
# peptide: VPATRVSPTPYA
# notes: also called clone 133
# B9: QILGYPTNLGPF (peptide)
# peptide: QILGYPTNLGPF
# notes: also called clone 135
# B10: LSTHKLFHSHSQ (peptide)
# peptide: LSTHKLFHSHSQ
# notes: also called clone 180
# B11: AAAPLNLSMTFP (peptide)
# peptide: AAAPLNLSMTFP
# notes: also called clone 182
# B12: IDKPLHVVLALG (peptide)
# peptide: IDKPLHVVLALG
# notes: also called clone 184
# B13: TTHSELSGYVEL (peptide)
# peptide: TTHSELSGYVEL
# notes: also called clone 188
# B14: IPFATAAYNAPG (peptide)
# peptide: IPFATAAYNAPG
# notes: also called clone 191
# B15: VGNMPFVHPHQW (peptide)
# peptide: VGNMPFVHPHQW
# notes: also called clone 192
# B16: HYFSRTQTLSTL (peptide)
# peptide: HYFSRTQTLSTL
# notes: also called clone 194
# B17: SAHTLAAWFAKP (peptide)
# peptide: SAHTLAAWFAKP
# notes: also called clone 204
# B18: ScFv 2-1 (scFv)
# scFv: EVQLLESGGGLVQPGGSLRLSCAASGFTFSSYAMSWVRQAPGKGLEWVSMITPLGSTTAYADSVKGRFTISRDNSKNTLYLQMNSLRAEDTAVYYCAKRAGVFDYWGQGTLVTVSSGGGGSGGGGSGGGGSTDIQMTQSPSSLSASVGDRVTITCRASQSISSYLNWYQQKPGKAPKLLIYRASTLQSGVPSRFSGSGSGTDFTLTISSLQPEDFATYYCQQNDSFPTTFGQGTKVEIKR
# notes: It was purified from bacteria on a nickel column
# B19: ScFv 3-2 (scFv)
# scFv: EIVMTQSPGTLSLSPGDRATLSCRASQSVSGYLAWYQQKPGQAPRLLIYDASNRATGIPARFSGSGSGTDFTLTISSLQAEDVAVYYCQQYYSTLPTFGQGTKLEIKRSGGSTITSYNVYYTKLSSSGTQVQLVQSGGGVVQPGRPLKLSCAASGFTFSSYAMHWVRQAPGKGLEWVAVISYDGSNKYYADSVKGRFTISRDNSKNTLYLQMNSLRAEDTAVYYCARDLSWNDAFDIWGQGTMVTVSSAS
# How the values were obtained:
# [1] = molecular target: Secreted Protein, Acidic, Rich in Cysteines (SPARC) (UniProt P09486); experiment: phage display panning on immobilised SPARC; times isolated among 134 sequenced clones
# [2] = molecular target: T1, Secreted Protein, Acidic, Rich in …; experiment: as above
# Text: (§1) Accordingly, a commercial peptide phage display library (12-mer peptides in M13) was screened for peptides which bind to SPARC. The target, SPARC is an acidic glycoprotein with a PI of 4.6. By immobilization on 96-wells plates with pH 9.6 coating buffer, Ph.D.-12 peptide library was screened four rounds to select peptide binders using phage display technology. Specifically, bound phages were eluted with an acidic eluting solution in the 1st round of screening. Then the screening stringency was enhanced gradually by decreasing the target protein concentration and increasing the percentage of Tween-20 in washing buffer. At the same time, competitive elution with excess target was adopted to improve the screening specificity. Finally, after four rounds of screening, ssDNA of selected clones were subjected to DNA sequencing. At the same time, the binding of the positive phages to the target protein was validated using phage ELISA.
# [3] = molecular target: T1, Secreted Protein, Acidic, Rich in …; experiment: concentration-dependent binding ELISA
# [4] = molecular target: T1, Secreted Protein, Acidic, Rich in …; experiment: concentration-dependent ELISA on SPARC
# [5] = molecular target: T1, Secreted Protein, Acidic, Rich in …; experiment: phage ELISA on SPARC-coated wells; OD column 1 of 3
# Text: as §1
# [6] = molecular target: T1, Secreted Protein, Acidic, Rich in …; experiment: phage ELISA on SPARC-coated wells; OD column 2 of 3
# Text: as §1
# [7] = molecular target: T1, Secreted Protein, Acidic, Rich in …; experiment: phage ELISA on SPARC-coated wells; OD column 3 of 3
# Text: as §1
# [8] = molecular target: T2, HTI SPARC (purified platelet SPARC …); experiment: Biacore, SPARC immobilised on the chip; S = soluble scFv
# [9] = molecular target: T3, Abx SPARC (SPARC from engineered HEK293 …); experiment: as above
# [10] = molecular target: T2, HTI SPARC (purified platelet SPARC …); experiment: Biacore, SPARC immobilised on the chip; R = refolded scFv
# [11] = molecular target: T3, Abx SPARC (SPARC from engineered HEK293 …); experiment: as above
Molecule,Count [2],OD [5],OD [6],OD [7],other results
HLPKSLS (peptide),–,–,–,–,Count [1]: 1
B1,6,–,–,–,–
B2,1,0.597,0.516,0.576,Kd [3]: 41 nM; EC50 (read off the curve) [4]: ~2 µg/mL; Kd [4]: 410 nM
B3,2,0.45,0.443,0.438,Kd [3]: 100 nM; EC50 (read off the curve) [4]: ~3 µg/mL; Kd [4]: 1 nM
B4,1,0.737,0.628,0.733,–
B5,1,0.619,0.611,0.605,–
B6,1,0.688,0.664,0.602,–
B7,2,0.903,0.985,0.882,–
B8,1,0.545,0.554,0.5,–
B9,1,0.626,0.652,0.66,–
B10,1,1.21,1.28,1.14,–
B11,1,0.756,0.782,0.643,–
B12,2,0.634,0.635,0.554,–
B13,1,0.716,0.682,0.685,–
B14,1,0.564,0.567,0.58,–
B15,1,0.567,0.5,0.539,–
B16,1,0.494,0.514,0.521,–
B17,1,0.8,0.748,0.779,–
B18,–,–,–,–,Kd [8]: 330 nM; Kd [9]: 370 nM
B19,–,–,–,–,Kd [10]: 78000 nM; Kd [11]: 1300 nM
